B1: PS1-70: recombinant peptide contained in the amino-terminal region of the Prosystemin polypeptide, free of Systemin; expressed in E. coli (protein)
chain: MGTPSYDIKNKGDDMQEEPKVKLHHEKGGDEKEKIIEKETPSQDINNKDTISSYVLRDDTQEIPKMEHEE
modifications: Peptide PS1-70
notes: recombinant peptide contained in the amino-terminal region of the Prosystemin polypeptide, free of Systemin; expressed in E. coli
B2: PS1-120: recombinant peptide contained in the amino-terminal region of the Prosystemin polypeptide, free of Systemin; expressed in E. coli (protein)
chain: MGTPSYDIKNKGDDMQEEPKVKLHHEKGGDEKEKIIEKETPSQDINNKDTISSYVLRDDTQEIPKMEHEEGGYVKEKIVEKETISQYIIKIEGDDDAQEKLKVEYEEEEYEKEKIVEKET
modifications: Peptide PS1-120
notes: as for B1

Experiments:
[1] = system: B. cinerea; test: Seed treatment: B. cinerea necrosis areas on leaves of plants born from treated tomato seeds; format: in vivo, Botrytis cinerea on tomato; details: leaves of 4-week-old plants born from seeds treated at 100 fM; day 8; control 11 mm^2 (FIG. 16)
Description: The mean necrosis areas were measured 1, 3 and 5 days after inoculation of the pathogen. The letters a, b indicate the statistical significance of the data (ANOVA), each letter representing a statistical group. The present inventors also assessed the protective effect conferred by the treatment with the peptides object of the invention directly on the seed. Tomato seeds were treated with a composition comprising the peptides at a concentration of 100 fM or with 1×PBS for the controls, allowed to dry and germinated in the dark on sterile adsorbent paper at 24° C. 4-week-old plant leaves were detached from the plant and inoculated with 10 μl of spore solution in the internerve spaces and near the previously marked points.

[2] = Biometric parameters of tomato plants irrigated with peptides; format: in vivo; details: 100 fM; for root surface (root area): 14 days of salt stress 150 mM, 15 days after irrigation (FIG. 20A); for growth (fresh weight) of the aerial part: absence of salt (FIG. 20B)
Description: FIG. 20 illustrates the effect of irrigation treatment with the peptides PS1-70, PS1-120 and SEQ ID NO.5 at a concentration of 100 fM on the biometric parameters of the tomato plant. […] The asterisks indicate the statistical significance of the data by Student's t-test (*p<0.05). A few biometric parameters are shown in FIG. 20, measured after 14 days of continuous salt stress (150 mM) and 15 days after irrigation with the peptides PS1-70, PS1-120 and SEQ ID NO.5 at 100 fM concentrations, and the respective controls.

[3] = system: Spodoptera littoralis larvae; test: Bioassay on Spodoptera littoralis larvae fed with peptide-treated tomato leaves; format: in vivo
Description: Briefly, S. littoralis larvae were grown in a climate chamber at 25° C., 70% relative humidity (RH), with a 16-hour light and 8-hour dark photoperiod and fed with an artificial diet until completion of the first moult. For the bioassays, 150 larvae for each thesis were grown on tomato leaves for the entire duration of the second instar to adapt them to the different diet. The newly moulted third-instar larvae up to the moult stage were fed with plants on which a composition comprising peptides PS1-70 and PS1-120 had been applied at 100 pM and 100 fM concentrations in 1×PBS buffer. Larvae fed with plants treated with 1×PBS buffer only were used as a control. Bioassays were carried out under the same environmental conditions, in 32-well plastic trays containing 1.5% (w/v) agar and 0.005% (w/v) methyl parahydroxybenzoate, which are useful for creating a humid environment for maintaining cell turgor of tomato leaves. Each experimental group consisted of 32 larvae. The survival of the larvae was monitored daily, and their weight every other day. […] A significant decrease in the survival of larvae fed with leaves of plants treated with the peptides of the invention compared to those fed with leaves of the control plants was also observed for both assays (FIGS. 10B and 10D). […] The same assay scheme was carried out by the present inventors by feeding S. littoralis larvae with leaves treated with the peptide PS1-70 and with peptides having the sequences SEQ ID NO. 3, 5, and 8 at femtomolar concentration. […] A significant decrease was also observed in the survival of larvae fed with peptide-treated leaves compared to those fed with the control leaves (FIG. 11B). […] 8, SEQ ID NO. 3, and SEQ ID NO. 5 (FIG. 11B).

[4] = system: B. cinerea; format: cell-based, Botrytis cinerea
Description: 3, 5 and 8, and Trichoderma T22, (C) PS1-70 and PS1-120. The growth of the fungus was measured 24 hours after the addition of the peptides of the invention as the turbidity level of the medium (absorbance at 600 nm). The letters a, b indicate the statistical significance of the data (ANOVA), each letter representing a statistical group. Furthermore, as shown in FIGS. 22A and 22B, the growth of the B. cinerea fungus was not disrupted when the growth medium was added with the peptides PS1-70 and PS1-120 of the invention.

[5] = system: Botrytis cinerea; test: Botrytis cinerea necrosis areas on treated detached tomato leaves; format: in vivo, Botrytis cinerea on Solanum lycopersicum
Description: For the performance of assays on the phytopathogenic Botrytis cinerea and Alternaria alternata fungi, the present inventors used spores of this microorganism obtained from cultures on solid PDA (Potato Dextrose Agar) sporulation substrate. The plates were inoculated with 20 μl of a conidial suspension at a concentration of 1×10^6 spores/ml and incubated for 15 days at 25° C. in the presence of diffused light, so as to obtain complete sporulation. The spores were then collected in 5 ml of sterile water and, in order to remove the mycelium, were filtered through glass wool, washed with sterile distilled water and collected by centrifugation at room temperature. The concentration of spores suitable for inoculation (10^5-10^7 spores/ml) was determined by the serial dilution method using a Burker cell counting chamber for spore counting.
The assay was carried out on a detached leaf by taking a compound leaf for each treated tomato plant and for each control plant. Each leaflet of the compound leaf was marked with 3 markers in order to guide the subsequent application of the spores and detection of the pathogen developing necrotic areas.
The leaves were treated by applying 2 μl of a composition comprising the peptides PS1-70 and PS1-120 of the invention at a concentration of 100 pM, 100 fM or 1×PBS for the control leaves. After 6 hours, the time necessary for the perception of the peptides, the leaves were detached from the plant and inoculations with 10 μl of spore solution were carried out in the internerve spaces and near the previously marked points. Monitoring was carried out by measuring the necrosis areas (expressed in mm^2) 1, 3, 5, 8 days after inoculation of the pathogen. The necrosis areas recorded on the control leaves were much larger than those detected on plants treated with the peptides of the invention. This difference increased as a function of the time elapsed since inoculation. The resistance inducing effect of the picomolar treatment is already statistically significant from the first day of inoculation of the pathogen up to the eighth day where values of 33 mm^2 were reached on the control leaves, unlike the treated leaves where values not exceeding 18 mm^2 were recorded for both peptides (FIG. 12A).

[6] = system: S. littoralis larvae; set-up: species or system Spodoptera littoralis; details: in vivo, po
[7] = day 13, leaves treated at 100 fM, control 44 mg (FIG. 10C)
[8] = day 15, 100 pM, control 96.87% (FIG. 10B)
[9] = day 15, leaves treated at 100 pM, control 38 mg (FIG. 10A)
[10] = femtomolar, day 8, control 20 mm^2 (FIG. 12B)

| Molecule | necrosis areas [1] [mm^2] | root surface (root area) [2] | growth (fresh weight) of the aerial part [2] | survival rate of larvae ([3]; day 13, 100 fM, control 100% (FIG. 10D)) [%] | average weight of larvae ([3]; day 13, femtomolar concentration, control 59 mg (FIG. 11A)) [mg] | survival rate of larvae ([3]; day 13, femtomolar concentration, control 100% (FIG. 11B)) [%] | average weight of larvae [3, 7] [mg] | survival rate of larvae [3, 8] [%] | average weight of larvae [3, 9] [mg] | growth of the B. cinerea fungus [4] | necrosis areas ([5]; 100 fM, day 8, control 11.72 mm^2 (FIG. 13)) [mm^2] | necrosis areas [5, 10] [mm^2] | direct toxic effect on survival and development of larvae [6] |
| --- | --- | --- | --- | --- | --- | --- | --- | --- | --- | --- | --- | --- | --- |
| B1 | 7.1 | greater root surface | able to promote the growth of the aerial part of the plant | 0 | 22 | 31.25 | 11 | 34.37 | 15 | not disrupted | 7.69 | 6.69 | no effect on their survival and development |
| B2 | 7.4 | greater root surface | able to promote the growth of the aerial part of the plant |  |  |  | 12 | 31.25 | 20 | not disrupted |  | 5.19 | no effect on their survival and development |

Source: patent US20230270119A1, “BIOSTIMULANT AND BIOPROTECTIVE PEPTIDES AND THEIR USE IN AGRICULTURE” (priority 2020, published 2023)
